Source: patent US20070196376A1 (AstraZeneca / MedImmune, published 2007)
Where a chain is given by its changes, count along the chain named.

B1: mAb 7.34.1 (antibody, V domains shown)
VH: QVQLQESGPGLVKPSETLSLTCTVSGGSISSYYWSWIRQPPGRGLEWIGYFFYSGYTNYNPSLKSRVTMSVDTSKNQFSLKLSSVTAADTAVYYCACITGTTKGGMDVWGQGATVTVSS
VL: QSVLTQAPSVSGAPGQRVTISCTGRSSNIGAGYDVHWYQQFPGTAPKLLIYGNSNRPSGVPDRFSGSKSGTSASLAITGLQAEDEADYYCQSYDSSLSGSVFGGGTKLTVLG
notes: Fully human XenoMouse hybridoma mAb, lambda light chain (V1-13/JL2); also called ATCC PTA-7423
B2: mAb 7.251.3 (antibody, V domains shown)
VH: B1 VH with R43K, M69I, A113T
VL: B1 VL with A7P, R25S, F41L, S54N, E83D, Y93F
notes: Fully human XenoMouse hybridoma mAb, lambda light chain (V1-13/JL2); also called ATCC PTA-7422
B3: mAb 7.234.2 (antibody, V domains shown)
VH: QLQLQESGPGLVKPSETLSLTCTVSGGSINSSSNYWGWIRQPPGKGLAWIGGIYYSGSTYYNPSLRSRVTMSVDTSKNQFSLKLSSVTAADTAVYYCARQRGHSSGWWYFDLWGRGTLVTVSS
VL: DIQMTQSPSSVSASVGDRVTITCRASRGISSWLAWYQQRPGKAPKLLIYTASSLQSGVPSRFSGSGSGTDFTLTISSLQPEDFATYYCQQANSFPFTFGPGTKVDIKR
notes: Kappa light chain (L5/JK3); also called 7.234.1; 7_234_1

Tests used:
[1] = molecular target: T1, human insulin-like growth factor-II (IGF-II) (human, UniProt P01344 25-91); assay: Biacore low-resolution analysis, IGF-II
T1 construct: also called IGF2; IGF-2
Experimental: (§1) The label-free surface plasmon resonance (SPR), or Biacore, was utilized to measure the antibody affinity to the antigen. For this purpose, a high-density goat anti-human antibody surface over a CM5 Biacore chip was prepared using routine amine coupling. All the mAbs were diluted to approximately 20 μg/ml in HBS-P running buffer containing 100 gg/ml BSA. Each mAb was captured on a separate surface using a 30-second contact time at 10 μL/min., and a 5-minute wash for stabilization of the mAb baseline.
(§2) The samples were prepared in the HBS-P running buffer described above. […] Drift-corrected binding data for the 34 mAbs was prepared by subtracting the signal from a control flow cell and subtracting the baseline drift of a buffer injected just prior to each antigen injection. […] A mass transport coefficient was used in fitting the data.

[2] = molecular target: T1, human insulin-like growth factor-II …; assay: cell-based or functional assay
[3] = molecular target: T2, human insulin-like growth factor-I (IGF-I) (human, UniProt P05019 49-118); assay: cell-based or functional assay
[4] = molecular target: T2, human insulin-like growth factor-I …; assay: Biacore high-resolution, mAb captured, IGF-I injected over a range of concentrations; second value, row without label
[5] = molecular target: T2, human insulin-like growth factor-I …; assay: Biacore low-resolution analysis, IGF-I
Experimental: as §1, §2

[6] = molecular target: T1, human insulin-like growth factor-II …; assay: Biacore high-resolution, mAb captured, IGF-II injected over a range of concentrations
[7] = molecular target: T2, human insulin-like growth factor-I …; assay: Biacore low-resolution screen, mAb captured, IGF-I injected
Experimental: as §1, §2

[8] = molecular target: T1, human insulin-like growth factor-II …; assay: cell-based or functional assay; remark: listed apart in the source
[9] = molecular target: T1, human insulin-like growth factor-II …; assay: cell-based or functional assay; remark: listed apart in the source
[10] = molecular target: T2, human insulin-like growth factor-I …; assay: cell-based or functional assay; remark: listed apart in the source
mouse IGF-II = mouse IGF-II (mouse, UniProt P09535 25-91); assay: cell-based or functional assay
mouse IGF-I = mouse IGF-I (mouse, UniProt P05017 49-118); assay: cell-based or functional assay
[11] = molecular target: T1, human insulin-like growth factor-II …; assay: cell-based or functional assay; remark: listed apart in the source
[12] = molecular target: T2, human insulin-like growth factor-I …; assay: cell-based or functional assay; remark: listed apart in the source
[13] = molecular target: T1, human insulin-like growth factor-II …; assay: Biacore low-resolution screen, mAb captured, IGF-II injected
Experimental: as §1, §2

[14] = molecular target: T1, human insulin-like growth factor-II …; assay: Biacore high-resolution, mAb captured, IGF-II injected over a range of concentrations; second value, row without label
[15] = molecular target: T2, human insulin-like growth factor-I …; assay: Biacore high-resolution, mAb captured, IGF-I injected over a range of concentrations

Row | Binder | Kd [1] [nM] | EC50 (nM), n = 2, IGF-II pTYR, BxPC3 cells [2] [nM] | Max % Inhibition (133.3 nM), n = 2, IGF-II pTYR, BxPC3 cells [2] [%] | Max % Inhibition (333.3 nM), n = 1, IGF-II pTYR, BxPC3 cells [2] [%] | EC50 (nM), n = 1, IGF-I pTYR, BxPC3 cells [3] [nM] | EC50 (nM), n = 2, IGF-I pTYR, BxPC3 cells [3] [nM] | Max % Inhibition (333.3 nM), n = 1, IGF-I pTYR, BxPC3 cells [3] [%] | Max % Inhibition (333.3 nM), n = 2, IGF-I pTYR, BxPC3 cells [3] [%] | Kd [5] [nM] | Kd [6] [nM] | Kd [7] [nM] | koff [7] [s⁻¹] | kon [7] [M⁻¹ s⁻¹] | EC50 (nM), n = 2, IGF-II Proliferation, BxPC3 cells [8] [nM] | Max % Inhibition (133.3 nM), n = 2, IGF-II Proliferation, BxPC3 cells [8] [%] | Max % Inhibition (333.3 nM), n = 1, IGF-II Proliferation, BxPC3 cells [8] [%] | % Inhibition, mean (n = 2), IGF-II Proliferation Assay, NIH3T3/hIGF-IR cells [9] [%] | EC50 (nM), mean (n = 2), IGF-II Proliferation Assay, NIH3T3/hIGF-IR cells [9] [nM] | % Inhibition, mean (n = 3), IGF-I Proliferation Assay, NIH3T3/hIGF-IR cells [10] [%] | EC50 (nM), mean (n = 3), IGF-I Proliferation Assay, NIH3T3/hIGF-IR cells [10] [nM] | also measured
1 | B1 | 0.06 | 1.9 | 89.7 | 100 | 5.9 | 3.8 | 100 | 98.5 | 0.615 | 0.164 | 0.615 | 0.0032 | 5.2e+06 | 6.7 | 109 | 117 | 73.6 | 16.3 | 72.6 | 23.4 | EC50 (nM), n = 1, IGF-II pTYR, BxPC3 cells [2]: 2 nM; Kd [4]: 0.421 nM; EC50 (nM), n = 1, IGF-II Proliferation, BxPC3 cells [8]: 0.5 nM; Mouse IGF-II EC50 (nM), n = 1, phosphorylation of hIGF-IR in NIH3T3 cells (mouse IGF-II): 4 nM; Mouse IGF-II EC50 (nM), n = 2, phosphorylation of hIGF-IR in NIH3T3 cells (mouse IGF-II): 9.7 nM; Mouse IGF-I EC50 (nM), n = 1, phosphorylation of hIGF-IR in NIH3T3 cells (mouse IGF-I): 6 nM; Mouse IGF-I EC50 (nM), n = 2, phosphorylation of hIGF-IR in NIH3T3 cells (mouse IGF-I): 10.2 nM; % MAX Activation, mean (n = 2), IGF-II pTYR of hIGF-IR in NIH3T3 cells [11]: 21.5%; EC50 (nM), mean (n = 2), IGF-II pTYR of hIGF-IR in NIH3T3 cells [11]: 2.5 nM; % MAX Activation, mean (n = 2), IGF-I pTYR of hIGF-IR in NIH3T3 cells [12]: 14.2%; EC50 (nM), mean (n = 2), IGF-I pTYR of hIGF-IR in NIH3T3 cells [12]: 9.4 nM; Kd [13]: 0.06 nM; koff [13]: 0.00018 s⁻¹; kon [13]: 3e+06 M⁻¹ s⁻¹; Kd [14]: 0.162 nM; Kd [15]: 0.436 nM
2 | B2 | 0.123 | 2.6 | 91.3 | 100 | 7.5 | 5.3 | 95.7 | 95.2 | 0.935 | 0.0474 | 0.935 | 0.0043 | 4.6e+06 | 4.4 | 105 | 128 | 79.2 | 22 | 72.4 | 38.9 | EC50 (nM), n = 1, IGF-II Proliferation, BxPC3 cells [8]: 0.5 nM; Mouse IGF-II EC50 (nM), n = 1, phosphorylation of hIGF-IR in NIH3T3 cells (mouse IGF-II): 5.4 nM; Mouse IGF-II EC50 (nM), n = 2, phosphorylation of hIGF-IR in NIH3T3 cells (mouse IGF-II): 8.7 nM; Mouse IGF-I EC50 (nM), n = 1, phosphorylation of hIGF-IR in NIH3T3 cells (mouse IGF-I): 6.7 nM; Mouse IGF-I EC50 (nM), n = 2, phosphorylation of hIGF-IR in NIH3T3 cells (mouse IGF-I): 10.6 nM; % MAX Activation, mean (n = 2), IGF-II pTYR of hIGF-IR in NIH3T3 cells [11]: 15.9%; EC50 (nM), mean (n = 2), IGF-II pTYR of hIGF-IR in NIH3T3 cells [11]: 3 nM; % MAX Activation, mean (n = 2), IGF-I pTYR of hIGF-IR in NIH3T3 cells [12]: 16.9%; EC50 (nM), mean (n = 2), IGF-I pTYR of hIGF-IR in NIH3T3 cells [12]: 14.5 nM; Kd [13]: 0.123 nM; koff [13]: 0.00043 s⁻¹; kon [13]: 3.5e+06 M⁻¹ s⁻¹; Kd [15]: 0.452 nM
3 | B3 | 0.0453 | 2.3 | 77.3 | 98.5 | 5.1 | 2.9 | 97.3 | 91.5 | 0.328 | 0.295 | 0.328 | 0.0022 | 6.7e+06 | 2.6 | 201 | 112 | 62.1 | 24.3 | 67.3 | 40.6 | EC50 (nM), n = 1, IGF-II pTYR, BxPC3 cells [2]: 1.9 nM; Mouse IGF-II EC50 (nM), n = 1, phosphorylation of hIGF-IR in NIH3T3 cells (mouse IGF-II): 36.1 nM; Mouse IGF-I EC50 (nM), n = 1, phosphorylation of hIGF-IR in NIH3T3 cells (mouse IGF-I): 46 nM; % MAX Activation, mean (n = 2), IGF-II pTYR of hIGF-IR in NIH3T3 cells [11]: 21.1%; EC50 (nM), mean (n = 2), IGF-II pTYR of hIGF-IR in NIH3T3 cells [11]: 7.7 nM; % MAX Activation, mean (n = 2), IGF-I pTYR of hIGF-IR in NIH3T3 cells [12]: 21.1%; EC50 (nM), mean (n = 2), IGF-I pTYR of hIGF-IR in NIH3T3 cells [12]: 24.3 nM; Kd [13]: 0.0453 nM; koff [13]: 0.00029 s⁻¹; kon [13]: 6.4e+06 M⁻¹ s⁻¹; Kd [15]: 3.76 nM
